Test results from the RNAGym collection of RNA variant scans (doi:10.1093/nar/gkz1192).

B1: CPEB3 Ribozyme (parent)
chain: UAACAGGGGGCCACAGCAGAAGCGUUCACGUCGCAGCCCCUGUCAGAUUCUGGUGAAUCUGCGAAUUCUGCUGUAUAUCUC

Variants of: B1
Assay: self-cleavage, relative activity (ratio to wild type); higher = more cleavage; in vitro, sequencing
Outline: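 Libraries of CPEB3 self-cleaving ribozyme mutants came from rounds of error-prone PCR and carried barcodes, which DNA sequencing matched to variants. In vitro transcription used T7 RNA polymerase at 37°C for 5 hours, with a further 15 min in DNase I before EDTA stopped the reaction; the ribozymes cleaved during both steps. The RNA was reverse transcribed with template switching and sequenced on Illumina. Relative activity is the cleaved/total read fraction of a variant divided by that of the unmutated ribozyme, averaged over three batches with at least 5 reads.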

Row | Variant | self-cleavage
1 | UAACAGGGGGCCACAGCAGAAGCGUUCACGUCGCAGCCCCUGUCAGAUUCUGGUUAAUCUGCGAAUUCCGCUGUAUAUCUC | 0.48
2 | UAACAGGGGGCCACAGCAGAAGCGUUCACGUCGCAGCCCCUGUCAGAUUCUGGUUAAACUGCGAAUUCUGCUGUAUAUCUC | 0.25
3 | UAACAGGGGGCCACAGCAGAAGCGUUCACGUCGCAGCCCCUGUCAGAUUCUGGUGCAUCUGCGAAUUCUGCUGUGUAUCUC | 0.29
4 | UAACAGGGGGCCACAGCAGAAGCGUUCACGUCGCAGCCCCUGUCAGAUUCUGGUAAAUCUGCGAACUCUGCUGUAUAUCUC | 0.22
5 | UAACAGGGGGCCACAGCAGAAGCGUUCACGUCGCAGCCCCUGUCAGAUUCUGGUGCAUCUGCGAAUUCCGCUGUAUAUCUC | 0.12
6 | UAACAGGGGGCCACAGCAGAAGCGUUCACGUCGCAGCCCCUGUCAGAUUCUGGUGCAUCUGCGAAUUCUGCUGUAAAUCUC | 0.71
7 | UAACAGGGGGCCACAGCAGAAGCGUUCACGUCGCAGCCCCUGUCAGAUUCUGGUGCAUCUGCGAACUCUGCUGUAUAUCUC | 0.32
8 | UAACAGGGGGCCACAGCAGAAGCGUUCACGUCGCAGCCCCUGUCAGAUUCUGGUGCAUCUGCGAAUUCUGCUGUAUAUCCC | 0.93
9 | UAACAGGGGGCCACAGCAGAAGCGUUCACGUCGCAGCCCCUGUCAGAUUCUGGUUAAUCUGUGAAUUCUGCUGUAUAUCUC | 0.23
10 | UAACAGGGGGCCACAGCAGAAGCGUUCACGUCGCAGCCCCUGUCAGAUUCUGGUUUAUCUGCGAAUUCUGCUGUAUAUCUC | 0.7
11 | UAACAGGGGGCCACAGCAGAAGCGUUCACGUCGCAGCCCCUGUCAGAUUCUGGUAAAUCUGCGAAUUCUGCUGUAUAUCAC | 1.15
12 | UAACAGGGGGCCACAGCAGAAGCGUUCACGUCGCAGCCCCUGUCAGAUUCUGGUAAAUCUGCGAAUUCUGCUGUAUAUCCC | 1.09
13 | UAACAGGGGGCCACAGCAGAAGCGUUCACGUCGCAGCCCCUGUCAGAUUCUGGUUAAUCUGCGAAUUCUGCUGUAUAUCUU | 0.6
14 | UAACAGGGGGCCACAGCAGAAGCGUUCACGUCGCAGCCCCUGUCAGAUUCUGGUGCGUCUGCGAAUUCUGCUGUAUAUCUC | 0.5
15 | UAACAGGGGGCCACAGCAGAAGCGUUCACGUCGCAGCCCCUGUCAGAUUCUGGUUAAUCUGCGAAUUCUGCUGUAUAUUUC | 1.16
16 | UAACAGGGGGCCACAGCAGAAGCGUUCACGUCGCAGCCCCUGUCAGAUUCUGGUCAAUCUGCGAAUUCUCCUGUAUAUCUC | 0.17
17 | UAACAGGGGGCCACAGCAGAAGCGUUCACGUCGCAGCCCCUGUCAGAUUCUGGUUAAUCUACGAAUUCUGCUGUAUAUCUC | 0.6

Row | Variant | self-cleavage
18 | UAACAGGGGGCCACAGCAGAAGCGUUCACGUCGCAGCCCCUGUCAGAUUCUGGUUAAUCUGCGAAUUCUGCCGUAUAUCUC | 0.78
19 | UAACAGGGGGCCACAGCAGAAGCGUUCACGUCGCAGCCCCUGUCAGAUUCUGGUCAAUCUGCGUAUUCUGCUGUAUAUCUC | 0.23
20 | UAACAGGGGGCCACAGCAGAAGCGUUCACGUCGCAGCCCCUGUCAGAUUCUGGUCAAUCUGCGGAUUCUGCUGUAUAUCUC | 0.72
21 | UAACAGGGGGCCACAGCAGAAGCGUUCACGUCGCAGCCCCUGUCAGAUUCUGGUGCAUCUGCGUAUUCUGCUGUAUAUCUC | 0.18
22 | UAACAGGGGGCCACAGCAGAAGCGUUCACGUCGCAGCCCCUGUCAGAUUCUGGUGCAUCUGCGGAUUCUGCUGUAUAUCUC | 0.49
23 | UAACAGGGGGCCACAGCAGAAGCGUUCACGUCGCAGCCCCUGUCAGAUUCUGGUAAAUCUGCGAAUCCUGCUGUAUAUCUC | 0.22
24 | UAACAGGGGGCCACAGCAGAAGCGUUCACGUCGCAGCCCCUGUCAGAUUCUGGUAAAUCUGCGAAUACUGCUGUAUAUCUC | 0.28
25 | UAACAGGGGGCCACAGCAGAAGCGUUCACGUCGCAGCCCCUGUCAGAUUCUGGUGGCUCUGCGAAUUCUGCUGUAUAUCUC | 0.19
26 | UAACAGGGGGCCACAGCAGAAGCGUUCACGUCGCAGCCCCUGUCAGAUUCUGGUUAAUCAGCGAAUUCUGCUGUAUAUCUC | 0.27
27 | UAACAGGGGGCCACAGCAGAAGCGUUCACGUCGCAGCCCCUGUCAGAUUCUGGUUAAUCCGCGAAUUCUGCUGUAUAUCUC | 0.27
28 | UAACAGGGGGCCACAGCAGAAGCGUUCACGUCGCAGCCCCUGUCAGAUUCUGGUGCAUCUGAGAAUUCUGCUGUAUAUCUC | 0.24
29 | UAACAGGGGGCCACAGCAGAAGCGUUCACGUCGCAGCCCCUGUCAGAUUCUGGUCAGUCUGCGAAUUCUGCUGUAUAUCUC | 0.37
30 | UAACAGGGGGCCACAGCAGAAGCGUUCACGUCGCAGCCCCUGUCAGAUUCUGGUCAAUCUGCGAAUUCUGCUGUAUAACUC | 0.97
31 | UAACAGGGGGCCACAGCAGAAGCGUUCACGUCGCAGCCCCUGUCAGAUUCUGGUCAAUCUGCGAAUUCUGCUGUAUACCUC | 0.94
32 | UAACAGGGGGCCACAGCAGAAGCGUUCACGUCGCAGCCCCUGUCAGAUUCUGGUUAAUCUGCGAAUUCUGCUGUAUACCUC | 0.75
33 | UAACAGGGGGCCACAGCAGAAGCGUUCACGUCGCAGCCCCUGUCAGAUUCUGGUUAAUCUGCGAAUUCUGCUGUAUAUCUC | 1.02
34 | UAACAGGGGGCCACAGCAGAAGCGUUCACGUCGCAGCCCCUGUCAGAUUCUGGUCAAUCUGCGAAUUCUGCUGUAUAUCUC | 0.94
